Measured values reported in patent US10736941B2, “Cell membrane-permeating peptide” (NATIONAL UNIVERSITY CORPORATION KUMAMOTO UNIVERSITY, priority 2015, dated 2020).
Where no end group is shown, it is not given here.

How the values were obtained:
[1] = tested on: mouse small intestine closed loop; assay: Promotion of insulin absorption by co-administration of cyclic peptide, mouse small intestine closed loop, blood glucose level; type: in vivo; conditions: DNPGNET 5 mM co-administered with insulin 10 IU/kg into mouse small intestine loop, versus insulin alone, over 60 minutes
Protocol: The influence on insulin absorption by co-administration of the cyclic peptide of the present invention was studied by measuring the blood glucose level.
We asked GenScript Japan Inc. to synthesize a cyclic peptide shown in FIG. 4B containing a sequence of DNPGNET (SEQ TD No: 5).
A peptide was prepared by using 100 μL of a hot HBSS solution so that the concentration of insulin was 10 IU/kg and the concentration of DNPGNET was 5 mM and incubated at 37° C. for 1 hour, and the resultant was used in the co-administration group. For the insulin single administration group, a sample was prepared by using 100 μL of a hot HBSS solution so that the concentration of insulin was 10 IU/kg and incubated at 37° C. for 1 hour, and the resultant peptide was used. In the same manner as in Example 6, a mouse small intestine closed loop was produced, then, the DNPGNET+insulin solution or the insulin solution prepared previously was administered into the loop. The time of administration was 0 min, and the blood glucose level was measured over a time of 60 minutes by using ACCU-CHEK (registered trademark) Aviva Nano.

[2] = tested on: Caco-2 cells; assay: Cell toxicity to Caco-2 cells (Cell Counting kit 8); type: cell-based, human; conditions: Caco-2 cells treated for 24 hours, 10 μM
Protocol: For cell toxicity, 100 μL of 0-10 μM DNP peptide was added to Caco-2 cells cultured in a 96-well plate, and the cell survival rates after 1, 6 and 24 hours were measured using Cell Counting kit 8 (DOJINDO Laboratories).
(§1) Caco-2 cells were treated for 24 hours using the cyclic peptide DNP having highest permeability at a concentration of 10 μM, but weakening of cell toxicity and tight junction was not observed.

[3] = tested on: Caco-2 cells; assay: Competitive inhibition of DNP-presenting phage permeation through Caco-2 cells by synthetic unlabeled DNP peptide; type: cell-based, human; conditions: unlabeled DNP 10 μM
Protocol: The experiment of permeation using Caco-2 cells was conducted according to a report of Ohura et al. (J. Pharm. Sci. Vol 100, No. 9, 2011). Each phage stock was prepared by diluting with an HBSS buffer so as to give a concentration of 5×10^11 pfu/mL. Caco-2 cells placed in Transwell (manufactured by Coring) were cultured, and formation of sufficient tight junction was confirmed, then, Transwell was transferred to a new 6-well plate. To the apical (AP) side of the cell, 2 mL of the phage preparation liquid was added and incubated at 37° C. (this time point t=0 min). When reached each time point, Transwell was transferred to a new 6-well plate. The time point was 1, 3, 5, 10 and 30 min. The sample at the basal (BA) side at each time point was kept on ice. When reached 30 min, Transwell was transferred to a new 6-well plate, and the HBSS buffer at the AP side was aspirated, then, the cells were recovered into a centrifugal tube. The titre at the BA side and the titre in the supernatant at each time point were measured by qPCR. […]
The DNP-presenting phage permeating Caco-2 cells was measured in the presence or in the absence of the unlabeled DNP, in the same manner as in Example 1. […]

[4] = tested on: Caco-2 cells; assay: Influence on tight junction of Caco-2 cells (TEER, Millicell ERS-2); type: cell-based, human; conditions: Caco-2 cells treated for 24 hours, 10 μM
Protocol: For the influence on tight junction, Caco-2 cells were cultured in Transwell, then, 2 mL of 0-10 μM peptide DNP was added at the apical (AP) side, and 1, 2, 3, 6, 12 and 24 hours after addition, the electric resistance value (TEER) was measured using Millicell ERS-2.
as §1

DNPGNET (also: cyclic peptide, mode of cyclisation not given here)
insulin absorption (blood glucose level) [1]: absorption of insulin was promoted
cell toxicity [2]: not observed
competitive inhibition of DNP-presenting phage permeating Caco-2 cells [3]: competitive inhibition occurs
weakening of tight junction (TEER) [4]: not observed
